This data set deals with the molecule itself. The experiment in a line: crystal structure; apo Pp-SpuC; crystals in 0.2 M MgCl2, 0.1 M Bis-Tris pH 6.5, 25% PEG3350, 20°C; two monomers in the asymmetric unit.

B1: putrescine transaminase from Pseudomonas putida (Pp-SpuC) (enzyme)
chain: MSTNNPQTREWQTLSGEHHLAPFSDYKQLKEKGPRIITKAQGVHLWDSEGHKILDGMAGLWCVAVGYGREELVQAAEKQMRELPYYNLFFQTAHPPALELAKAITDVAPEGMTHVFFTGSGSEGNDTVLRMVRHYWALKGKPHKQTIIGRINGYHGSTFAGACLGGMSGMHEQGGLPIPGIVHIPQPYWFGEGGDMTPDAFGIWAAEQLEKKILEVGEDNVAAFIAEPIQGAGGVIIPPETYWPKVKEILAKYDILFVADEVICGFGRTGEWFGSDYYDLKPDLMTIAKGLTSGYIPMGGVIVRDKVAKVISEGGDFNHGFTYSGHPVAAAVGLENLRILRDEQIVEKARTEAAPYLQKRLRELQDHPLVGEVRGLGMLGAIELVKDKATRSRYEGKGVGMICRTFCFENGLIMRAVGDTMIIAPPLVISHAEIDELVEKARKCLDLTLEAIR
notes: putrescine transaminase SpuC of Pseudomonas putida (strain NBRC 14161 bought from NCIMB), cloned in pET-28b as in Galman et al., 2017; in the crystal residues 1-33, 154-179 and 313-324 are disordered; No cleavage of the tag is told; Crystallised in the apo form (no PLP seen); also called putrescine transaminase spuC; source: E. coli BL21 (DE3), pET28b, purified (Ni-NTA, ion exchange on …)
Usually stoichiometry N stands for the number of molecules, sites or subunits per partner or assembly. Regarding B1, the “stoichiometry N” value came to 2.

Values taken from publication PMC6308316, “Characterization of a Putrescine Transaminase From Pseudomonas putida and its Application to the Synthesis of Benzylamine Derivatives” (Frontiers in Bioengineering and Biotechnology, 2018).
